This note sets out measurements from patent US20240034774A1 (Gilead, published 2024).

For assay [1], the target named is T1, Human FcRn (human, UniProt P55899 24-297; P61769 21-119).
T1 construct: also called neonatal Fc-receptor; biotinylated human FcRn
Kind of assay: SPR (Biacore 4000) at pH 7.4, biotinylated FcRn captured on streptavidin C1 chip, antibody as analyte, steady-state fit. On the technique in general: SPR reads the build-up and loss of mass on a sensor chip optically.
Experimental: (§1) The in vitro binding dissociation constants (KD) of selected antibodies described herein for human and cynomolgus macaque (cyno) Fc binding receptors (FcγRs, FcRn) were determined using the Biacore 4000 surface plasmon resonace (SPR) biosensor, and either C1 or CM4 sensor chips (GE Healthcare).
(§2) For human FcRn binding assays, 600 RU of streptavidin was amine coupled to a C1 sensor chip using standard NHS/EDC coupling. The immobilization buffer was PBS+0.005% Tween 20, pH 7.4. Streptavidin was prepared at 50 μg/ml in 10 mM NaAc pH 4.5. Activation, coupling, and blocking steps were run for 10 minutes, each at 10 μl/min. […] Data were collected at pH 6.0 and pH 7.4 in triplicate. The response data at steady-state were fit to a simple binding isotherm.

Assay [2] has as its target T2, Cyno FcRn (cynomolgus macaque, UniProt Q8SPV9 24-297; Q8SPW0 21-119).
T2 construct: also called cynomolgus macaque FcRn; biotinylated cyno FcRn
Kind of assay: SPR (Biacore 4000) at pH 6.0, biotinylated cyno FcRn captured on streptavidin C1 chip, antibody as analyte, steady-state fit.
Experimental: (§3) The in vitro binding dissociation constants (KD) of selected antibodies described herein for human and cynomolgus macaque (cyno) Fc binding receptors (FcγRs, FcRn) were determined using the Biacore 4000 surface plasmon resonace (SPR) biosensor, and either C1 or CM4 sensor chips (GE Healthcare). Biotinylated human FcRn was purchased from Immunitrack. Biotinylated cynomolgus macaque FcRn and human FcγRIIIB-NA1 and FcγRIIIB-NA2 were purchased from Acro Biosystems.
(§4) To determine cynomolgus macaque FcRn binding affinities, 600 RU of streptavidin was amine coupled to a C1 sensor chip using standard NHS/EDC coupling. The immobilization buffer was PBS+0.005% Tween 20, pH 7.4. Streptavidin was prepared at 50 μg/ml in 10 mM NaAc pH 4.5. Activation, coupling, and blocking steps were run for 10 minutes, each at 10 μl/min. Biotinylated cyno FcRn was captured to about 20 RU. Antibodies were tested for binding to the FcRn surface using a two-fold concentration series up to 1 μM. Data were collected at pH 6.0 and pH 7.4 in triplicate. The response data at steady-state were fit to a simple binding isotherm.

The target in assay [3] is T3, Cyno FcγRIIA (cynomolgus macaque).
T3 construct: also called cynomolgus macaque FcγRIIA
Kind of assay: SPR (Biacore 4000), antibody amine coupled to CM4 chip, cyno FcγRIIA as analyte, steady-state fit.
Experimental: as §1
(§5) To determine cynomolgus macaque FcγRIIA, FcγRIIB, FcγRIII and FcγRI binding affinities each test antibody was amine coupled to a CM4 sensor chip at two densities (about 100 RU and about 800 RU). Cyno FcγRIIA and FcγRIIB were tested in a two-fold concentration series up to 1 μM. FcγRIII was tested in a two-fold concentration up to 500 nM. Cyno FcγRI was tested for binding using a two-step titration (3 nM and 30 nM). The response data for FcγRIIA, FcγRIIB, FcγRIII at steady-state were fit to a simple binding isotherm. Responses for FcγRI were fit to a simple kinetic model.

In assay [4] the target is T4, Human FcγRI (human, UniProt P12314 16-288).
T4 construct: also called CD64
Kind of assay: SPR (Biacore 4000), antibody amine coupled to CM4 chip, FcγRI as analyte (3 and 30 nM), kinetic fit.
Experimental: as §3
To determine human FcγRI binding affinities, each test antibody was amine coupled to a CM4 sensor chip at two densities (about 100 RU and about 800 RU). Human FcγRI was tested for binding using a two-step titration series (3 nM and 30 nM). Responses were fit to a simple kinetic model.

Assay [5] addresses T1, Human FcRn. Kind of assay: SPR (Biacore 4000) at pH 6.0, biotinylated FcRn captured on streptavidin C1 chip, antibody as analyte, steady-state fit.
Experimental: as §1, §2
Assay [6] deals with T2, Cyno FcRn. Kind of assay: SPR (Biacore 4000) at pH 7.4, biotinylated cyno FcRn captured on streptavidin C1 chip, antibody as analyte, steady-state fit.
Experimental: as §3, §4
In assay [7] the target is T5, Human FcγRIIIB-NA2 (human, UniProt O75015 17-200).
T5 construct: also called CD16b NA2
Kind of assay: SPR (Biacore 4000), antibody amine coupled to CM4 chip, FcγRIIIB as analyte, steady-state fit.

The target in assay [8] is T6, Human FcγRIIIB-NA1 (human, UniProt O75015 17-200).
T6 construct: also called CD16b NA1
The description is as above.

Assay [9] concerns the target T7, Human FcγRIIB (human, UniProt P31994 46-217).
T7 construct: also called FcγRIIB/C; FcRIIB/C
T7 sequence (looked up): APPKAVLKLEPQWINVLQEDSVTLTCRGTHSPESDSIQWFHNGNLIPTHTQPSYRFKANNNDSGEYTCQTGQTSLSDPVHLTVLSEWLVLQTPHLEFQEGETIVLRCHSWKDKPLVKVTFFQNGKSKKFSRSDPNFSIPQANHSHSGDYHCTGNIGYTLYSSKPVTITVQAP
Kind of assay: SPR (Biacore 4000), FcγRIIB/C amine coupled to CM4 chip, antibody as analyte, steady-state fit.

In assay [10] the target is T8, human C1q protein (human, UniProt P02745 23-245; P02746 28-253; P02747 29-245).
T8 construct: also called complement protein C1q
Kind of assay: C1q binding ELISA, antibody coated on plate, titrated human C1q, anti-C1q-HRP detection, n = 3 assays. (In general: ELISA stands for enzyme-linked immunosorbent assay.)
Experimental: A dose response binding ELISA was conducted to determine the relative C1q binding affinity of antibodies described herein. To conduct they assay, a 384-well Maxisorp plate was coated with 25 μl of antibody solution at 5 μg/mL in PBS pH 7.4 overnight at 4° C. Plates were then blocked with 75 μL of 1% BSA in PBS for 2 hours and washed 4 times with PBS+0.05% Tween 20 (PBST). Next, 25 μL of a three-fold serial dilution of human C1q protein in PBS+5% BSA was added to the plates. Plates were incubated with shaking at 600 rpm for one hour, washed 4 times with PBST and then 25 μL of anti-C1q-HRP conjugated polyclonal antibody was added in PBS+5% BSA. Plates were incubated with shaking at 600 rpm for 15 minutes, washed 8 times with PBST and then developed using 3,3′,5,5′-Tetramethylbenzidine (TMB) substrate and quenched with HCl.

Assay [11] has as its target T9, Cyno FcγRI (cynomolgus macaque, UniProt A0A2K5U901 33-309).
T9 construct: also called cynomolgus macaque FcγRI
Kind of assay: SPR (Biacore 4000), antibody amine coupled to CM4 chip, cyno FcγRI as analyte (3 and 30 nM), kinetic fit.
Experimental: as §1, §5

Assay [12] deals with T10, Cyno FcγRIIB (cynomolgus macaque).
T10 construct: also called cynomolgus macaque FcγRIIB
Kind of assay: SPR (Biacore 4000), antibody amine coupled to CM4 chip, cyno FcγRIIB as analyte, steady-state fit.
Experimental: as §1, §5

Assay [13] addresses T11, Cyno FcγRIII (cynomolgus macaque, UniProt Q8SPW2 17-208).
T11 construct: also called cynomolgus macaque FcγRIII
Kind of assay: SPR (Biacore 4000), antibody amine coupled to CM4 chip, cyno FcγRIII as analyte, steady-state fit.
Experimental: as §1, §5

Assay [14] has as its target gp120 CAAN (HIV).
Assay [15] concerns the target gp120 Bal (HIV-1).
For assay [16], the target named is gp120 REJO (HIV).
Assay [17] deals with T12, Human FcγRIIA-167H (human, UniProt P12318 36-218).
T12 sequence (looked up): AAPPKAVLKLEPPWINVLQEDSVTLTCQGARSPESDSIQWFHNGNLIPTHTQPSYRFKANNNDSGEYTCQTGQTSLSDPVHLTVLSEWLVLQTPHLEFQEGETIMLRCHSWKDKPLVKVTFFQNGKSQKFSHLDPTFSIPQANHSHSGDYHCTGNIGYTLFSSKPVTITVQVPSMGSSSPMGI
Kind of assay: SPR (Biacore 4000), receptor amine coupled to CM4 chip, antibody as analyte, steady-state fit.

Assay [18] addresses Human FcγRIIIA-176F (human, UniProt P08637 17-208). The description is as above.
In assay [19] the target is T13, Human FcγRIIIA-176V (human, UniProt P08637 17-208).
T13 construct: also called CD16a 176V
The assay is described as above.

The target in assay [20] is T14, Human FcγRIIA-167R (human, UniProt P12318 36-218).
T14 sequence (looked up): T12 sequence (looked up) with H132R
The description is as above.

Numbering of substitutions follows the chain as printed.

B1: Antibody A (antibody, human IgG1, kappa)
heavy: not shown
light: DIQMTQSPSSLSASVGDTVTITCQANGYLNWYQQRRGKAPKLLIYDGSKLERGVPSRFSGRRWGQEYNLTINNLQPEDIATYFCQVYEFVVPGTRLDLKRTVAAPSVFIFPPSDEQLKSGTASVVCLLNNFYPREAKVQWKVDNALQSGNSQESVTEQDSKDSTYSLSSTLTLSKADYEKHKVYACEVTHQGLSSPVTKSFNRGEC
The Kd is the constant that tells how readily two partners part at equilibrium. A lower Kd goes with a tighter complex. A word on the EC50: it is the concentration needed to bring the measured effect to its halfway point. Take B1: the Kd worked out at 42000 nM in [1]; 1100 nM in assay [2]; 2000 nM in assay [3]; 0.107 nM in [4]; 485 nM in [5]; 12800 nM in assay [6]. Further, the equilibrium dissociation constant (Kd) in [7] came out at 1500 nM; in assay [8] it was 2000 nM; in assay [9] it was 11000 nM; in [11], 0.038 nM; in assay [12] it was 895 nM; in assay [13], 200 nM. Further, the equilibrium dissociation constant (Kd) in assay [17] worked out at 1800 nM; in [18], 2300 nM; in assay [19], 670 nM; in assay [20], 3000 nM. In addition, the EC50 in assay [10] was 2.2 nM; in assay [14], 1.84 nM; in [15], 0.05 nM; in assay [16] it was 2.21 nM.
